B1: protease, trypsin porcine pancreas: commercial trypsin, source porcine pancreas (protein, UniProt P00761 9-231, looked up)
Trypsin: IVGGYTCAANSIPYQVSLNSGSHFCGGSLINSQWVVSAAHCYKSRIQVRLGEHNIDVLEGNEQFINAAKIITHPNFNGNTLDNDIMLIKLSSPATLNSRVATVSLPRSCAAAGTECLISGWGNTKSSGSSYPSLLQCLKAPVLSDSSCKSSYPGQITGNMICVGFLEGGKDSCQGDSGGPVVCNGQLQGIVSWGYGCAQKNKPGVYTKVCNYVNWIQQTIAAN
B2: protease, type X: commercial enzyme preparation, source B. thermoproteoliticus rokko (protein, UniProt P00800 233-548, looked up)
Thermolysin: ITGTSTVGVGRGVLGDQKNINTTYSTYYYLQDNTRGNGIFTYDAKYRTTLPGSLWADADNQFFASYDAPAVDAHYYAGVTYDYYKNVHNRLSYDGNNAAIRSSVHYSQGYNNAFWNGSQMVYGDGDGQTFIPLSGGIDVVAHELTHAVTDYTAGLIYQNESGAINEAISDIFGTLVEFYANKNPDWEIGEDVYTPGISGDSLRSMSDPAKYGDPDHYSKRYTGTQDNGGVHINSGIINKAAYLISQGGTHYGVSVVGIGRDKLGKIFYRALTQYLTPTSNFSQLRAAAVQSATDLYGSTSQEVASVKQAFDAVGVK
B3: protease, type XXIV: commercial enzyme preparation, source bacterial (subtil. Carlsberg) (protein, UniProt P00780 106-379, looked up)
Subtilisin Carlsberg: AQTVPYGIPLIKADKVQAQGFKGANVKVAVLDTGIQASHPDLNVVGGASFVAGEAYNTDGNGHGTHVAGTVAALDNTTGVLGVAPSVSLYAVKVLNSSGSGSYSGIVSGIEWATTNGMDVINMSLGGASGSTAMKQAVDNAYAKGVVVVAAAGNSGSSGNTNTIGYPAKYDSVIAVGAVDSNSNRASFSSVGAELEVMAPGAGVYSTYPTNTYATLNGTSMASPHVAGAAALILSKHPNLSASQVRNRLSSTATYLGSSFYYGKGLINVEAAAQ
B4: protease (Chirazyme P1): commercial enzyme preparation, source Bacillus licheniformis (protein, UniProt P00780 106-379, looked up)
Subtilisin Carlsberg: B3 Subtilisin Carlsberg
B5: protease, type XXVII: commercial enzyme preparation, (Nagarase) (protein, UniProt P00782 108-382, looked up)
Subtilisin BPN': AQSVPYGVSQIKAPALHSQGYTGSNVKVAVIDSGIDSSHPDLKVAGGASMVPSETNPFQDNNSHGTHVAGTVAALNNSIGVLGVAPSASLYAVKVLGADGSGQYSWIINGIEWAIANNMDVINMSLGGPSGSAALKAAVDKAVASGVVVVAAAGNEGTSGSSSTVGYPGKYPSVIAVGAVDSSNQRASFSSVGPELDVMAPGVSIQSTLPGNKYGAYNGTSMASPHVAGAAALILSKHPNWTNTQVRSSLENTTTKLGDSFYYGKGLINVQAAAQ

Key:
Assay type in all cases: biochemical
[1] = Enzyme screens for resolution of racemic N-(acetyl)-4-keto-D,L-proline methyl ester (Example 7, comparative); settings: 0.100M racemate, 5 h, 5.0 to 30 mg/mL enzyme, 25° C.; for conv. (percent conversion of the racemate): 0.20M sodium succinate pH 6.0; for % ee (enantiomeric excess of the D-isomer): pH 6.0
Protocol: (§1) An aqueous solution (1.0 mL) containing 0.100M racemic N-(acetyl)-4-keto-D,L-proline methyl ester in 0.20M sodium succinate (pH 6.0) was mixed with 5.0 to 30 mg/mL of commercial enzyme preparations (listed in the table below) at 25° C. […] The dichloromethane extract was then analyzed by chiral gas chromatography on a Chiraldex G-TA column (Advanced Separation Technologies, Inc., 50 m×0.32 mm ID) to determine the percent conversion of the racemate, and the enantiomeric excess of the N-(acetyl)-4-keto-D-proline methyl ester.

[2] = Enzyme screens for resolution of racemic N-(methoxycarbonyl)-4-keto-D,L-proline methyl ester (Example 1); settings: 0.100M racemate, 5.0 to 50 mg/mL enzyme, 25° C., optimum; for conv. (percent conversion of the racemate): 0.20M sodium succinate pH 6.0, 5 h or 0.20M sodium acetate pH 5.0, 24 h; for % ee (enantiomeric excess of the D-isomer; L-isomer with porcine liver esterase): pH 6.0, 5 h or pH 5.0, 24 h
Protocol: An aqueous solution (1.0 mL) containing 0.100M racemic N-(methoxycarbonyl)-4-keto-D,L-proline methyl ester in either 0.20M sodium succinate (pH 6.0) or 0.20M sodium acetate (pH 5.0) was mixed with 5.0 to 50 mg/mL of commercial enzyme preparations (listed in the table below) at 25° C. […] The dichloromethane extract was then analyzed by chiral gas chromatography on a Chiraldex G-TA column (Advanced Separation Technologies, Inc., 50 m×0.32 mm ID) to determine the percent conversion of the racemate, and the enantiomeric excess of the N-(methoxycarbonyl)-4-keto-D-proline methyl ester.

[3] = Enzyme screens for resolution of diastereomeric mixture CHLP(MEMC)/THLP(MEMC) (Example 13); settings: 0.050M each isomer, 5 h, 5.0 to 50 mg/mL enzyme, 25° C.; for conv. (percent conversion of the diastereomeric mixture): 0.100M potassium phosphate pH 7.0; for % de (diastereomeric excess of the cis-L-isomer): pH 7.0
Protocol: (§2) An aqueous solution containing 0.050M N-(methoxycarbonyl)-trans-4-hydroxy-L-proline methyl ester and 0.050M N-(methoxycarbonyl)-cis-4-hydroxy-L-proline methyl ester in 0.100M potassium phosphate (pH 7.0) was mixed with 5.0 to 50 mg/mL of commercial enzyme preparations (listed in the table below) at 25° C. The reactions were analyzed after 5 h by removal of a 0.200 mL sample and mixing with an equivalent volume of 0.100M propionic acid (HPLC internal standard) in water. The resulting solution was filtered through a 10K molecular weight cut-off filter to remove the enzyme and the filtrate analyzed by high pressure liquid chromatography on a HPX-87H column (Bio-Rad, 30 cm×7.8 mm) to determine the percent conversion of the diastereomeric mixture, and the diastereomeric excess of the N-(methoxycarbonyl)-cis-4-hydroxy-L-proline methyl ester.

[4] = Enzyme screens for resolution of diastereomeric mixture CHDP(MEMC)/THLP(MEMC) (Example 9); settings: 0.050M each isomer, 5 h or 24 h, 5.0 to 50 mg/mL enzyme, 25° C.; for conv. (percent conversion of the diastereomeric mixture): 0.100M potassium phosphate pH 7.0; for % de (diastereomeric excess of the D-isomer, CHDP(MEMC)): pH 7.0
Protocol: as §2, with “aqueous solution (1.0 mL) containing 0.050M” for “aqueous solution containing 0.050M”, “and 0.050M N-(methoxycarbonyl)-cis-4-hydroxy-D-proline methyl ester” for “and 0.050M N-(methoxycarbonyl)-cis-4-hydroxy-L-proline methyl ester”, “after 5 h or 24 h by” for “after 5 h by”, “conversion of each isomer of the diastereomeric” for “conversion of the diastereomeric”, “of the N-(methoxycarbonyl)-cis-4-hydroxy-D-proline methyl ester.” for “of the N-(methoxycarbonyl)-cis-4-hydroxy-L-proline methyl ester.”

[5] = Enzyme screens for resolution of racemic N-(methoxycarbonyl)-4,4-dimethoxy-D,L-proline methyl ester (Example 8, comparative); settings: 0.100M racemate, 6 h or 17 h, 5.0 to 30 mg/mL enzyme, 25° C.; for conv. (percent conversion of the racemate): 0.25M potassium phosphate pH 7.0; for % ee (enantiomeric excess of the D-isomer): pH 7.0
Protocol: as §1, with “N-(methoxycarbonyl)-4,4-dimethoxy-D,L-proline” for “N-(acetyl)-4-keto-D,L-proline”, “0.25M potassium phosphate” for “0.20M sodium succinate”, “7.0)” for “6.0)”, “ethyl acetate” for “dichloromethane”, “N-(methoxycarbonyl)-4,4-dimethoxy-D-prolinemethyl” for “the N-(acetyl)-4-keto-D-proline methyl”

Row | Molecule | conv. (percent conversion of the racemate) [1] [%] | % ee (enantiomeric excess of the D-isomer) [1] [%] | conv. (percent conversion of the racemate) [2] [%] | % ee (enantiomeric excess of the D-isomer; L-isomer with porcine liver esterase) [2] [%] | conv. (percent conversion of the diastereomeric mixture) [3] [%] | % de (diastereomeric excess of the cis-L-isomer) [3] [%] | conv. (percent conversion of the diastereomeric mixture) [4] [%] | % de (diastereomeric excess of the D-isomer, CHDP(MEMC)) [4] [%] | conv. (percent conversion of the racemate) [5] [%] | % ee (enantiomeric excess of the D-isomer) [5] [%]
1 | protease, chymopapain: commercial enzyme preparation, source papaya latex | 0 | 0 | 0 | 0 | 0 | 0 | 0 | 0 |  | 
2 | protease, pepsin: commercial enzyme preparation, source porcine stomach mucosa | 0 | 0 | 0 | 0 | 0 | 0 | 0 | 0 |  | 
3 | B1 | 0 | 0 | 0 | 0 | 0 | 0 | 0 | 0 |  | 
4 | B2 | 0 | 0 | 0 | 0 | 0 | 0 | 0 | 0 |  | 
5 | B3 |  |  | 17 | 18 | 6 | 5 | 16 | 16 | 42 | 22
6 | B4 | 43 | 37 | 54 | 65 | 25 | 31 | 28 | 26 | 44 | 22
7 | B5 |  |  | 27 | 21 | 17 | 16 | 2 | 4 | 44 | 30
